This is an account of results in the DeepSol protein solubility set.

The data set in a line: soluble on expression in E. coli; label from the status in PepcDB or PDB records.
In the case of “MGSDKIHHHHHHMKKATLKDIAEYFGVSISTVSRALSGKPGVSSELREKILEKAREIGYTPNLMALGLKKGNTRTVGVLIPELSANFFADIVSSIEKSLFHLGYRLILCSTDDDPVKEREHLQLLLDQKVEGILSAPVNVKENKDIYNSIINHFKIPVVFFDRLVEGVDSDFVISDNREGMEILVNYLVKHGHKKIGLIHPLRGSFTGEERLKGFLLFKDSIEIREEWIRDGRSSEQGGYESFLRIMTSQERPTAIVIGNNLMTLGVLKAAKELNIKIPEDISLVSFDDAYWNEIFDPPITCVRQDPQQIGLIAATILLDRMKNRKKPSPRMQVVLKVKFVERSSVRTIKTLKDFS”, the “soluble on expression in E. coli” value is “not soluble”.
Take “MAKLLYVQTSGIDTPERLYAPFVLAMTAKAMGDDAIIYFVIKGVTVVKKDNAEKIKMGNFPPLSELMKQARESGVEMMVCDRSSELLGIDKGEIVDGVKIVGAATLNQLVLEADGVLYF”: the “soluble on expression in E. coli” value is “not soluble”.
“MLPDSSVRLNKYISESGICSRREADRYIEQGNVFLNGKRATIGDQVKPGDIVKVNGQLIEPREAEDLVLIALNKPVGIVSTTEDGERDNIVDFVNHSKRVFPIGRLDKDSQGLIFLTNHGDLVNKILRAGNDHEKEYLVTVDKPITDEFIRGMGAGVPILGTVTKKCKVKKEAPFVFRITLVQGLNRQIRRMCEHFGYEVKKLERTRIMNVSLSGIPLGEWRDLTDDELIDLFKLIENSSSEAKPKAKAKPKTAGIKRPVVKMEKTAEKGGRPASNGKRFTSPGRKKKGR”: the “soluble on expression in E. coli” value is listed as “not soluble”.
For the sequence “AIAEVLRPPLININGRIYRKNPVQEETYEEEEEDCSYSEAAVDQCLDEPCDAHNIEQTDRGFRCALDVPSVLYKYIIGKKGETRRRLESETKTSINIPKQGVEGQIVVTGAHRPSVSSAVTRIEVLIDSFRRKQPFTHFLSFALNHAQVREGFLRFREEVLEHCSQDSGVDVSIFQNPDKLHLTIGTLVLLNQQEVTRANELLHQCQDTIREITGAEALPVEVRGVEYMNDDPSMVDVLYAKVSVQDGSDRLQQISDRLVECFVSAGLMERERDRVKIHATVMNTLFRRDPSAEDRGAPARANPRDREAFNGKNILQMFGDFYFGAFELNSVQISQRFSTDSSGYYSSAGHITFS”, the “soluble on expression in E. coli” value is “soluble”.
“MGSDKIHHHHHHVDALEVHRFLKGKIRTALPVEKVDRETLSLLYTPGVADVARACAEDPEKTYVYTSRWNTVAVVSDGSAVLGLGNIGPYGALPVMEGKAFLFKAFADIDAFPICLSESEEEKIISIVKSLEPSFGGINLEDIGAPKCFRILQRLSEEMNIPVFHDDQQGTAVVVSAAFLNALKLTEKKIEEVKVVVNGIGAAGYNIVKFLLDLGVKNVVAVDRKGILNENDPETCLNEYHLEIARITNPERLSGDLETALEGADFFIGVSRGNILKPEWIKKMSRKPVIFALANPVPEIDPELAREAGAFIVATGRSDHPNQVNNLLAFPGIMKGAVEKRSKITKNMLLSAVEAIARSCEPEPERIIPEAFDMKVHLNVYTAVKGSA”: the “soluble on expression in E. coli” value was “soluble”.
The entry for “MGSDKIHHHHHHMSMAMEHDLLIVGGGPVGATLALALQYKGIDATVLEARAHGAAHHDQRALALSYGSILILERLGLWSGLKPKATAINTIHVSQRGSLGRSLLKAEDHDQPALGYVLSYGDLSAALDDAIRQFPGIQVRYEAEALAIKPGREAAHVEYQYQAQAYSCNSRMTVLADGGRSLADIPGLERETKHYGHDALVSKVSCELPHDNIAYERFTPAGPVALLPNGTRDFSLVWTGKAEEVQALLALDDAAFLEALHTHFGDRVGRFLTVGKRLSFPLKLSYLKPVTAPHLTVIGNAAQTMHPVAGQGFNVGMRDAWELAQLLAQTPSEEWGMDRMMQAYQASRKADTRGGLLFTDFLVNVFSNDIVGLRKIRSLGLGLLDMLPLAKQHLVSKMSFGPRG” is “not soluble”; for “MTAPFFPRILGAVAFLNQETEPLTMNLQHHFLIAMPALQDPIFRRSVVYICEHNTNGAMGIIVNKPLENLKIEGILEKLKITPEPRDESIRLDKPVMLGGPLAEDRGFILHTPPSNFASSIRISDNTVMTTSRDVLETLGTDKQPSDVLVALGYASWEKGQLEQEILDNAWLTAPADLNILFKTPIADRWREAAKLIGVDILTMPGVAGHALEHHHHHH” it is “not soluble”.
The entry for “SGGGGGILEKLGDICFSLRYVPTAGKLTVVILEAKNLKKMDVGGLSDPYVKIHLMQNGKRLKKKKTTIKKNTLNPYYNESFSFEVPFEQIQKVQVVVTVLDYDKIGKNDAIGKVFVGYNSTGAELRHWSDMLANPRRPIAQWHTLQVEEEVDAMLAVKK” is “soluble”; for “MAHHHHHHMLRITPSRYASKVTAGNAKNQAGSPRQKAKLFHVIPGTPVTPVEKLKEQRRRFGQDRYSRQPEYRPGRNVRMDPNTFTLYATTKGVMTIRTSRINPSYKWLDVEPDIQKVYRSRCMRAALQARGKASMMVAGNVHYRAELDHVTEPHWRERVMRVPKATERFQDPNYFTRGLVPSLRPLSRYSYE” it is “soluble”; for “MGSDKIHHHHHHMKGKHKVIVSTKRLKYEFELRRNLTIIQGDSATGKTTLVDMIRDFVNNPTGTPVEVICDKKCHVVEGSLWKEQLSGISDCIVFIDEGNEFITTVDFADKIQKTDNYYVIVTREALPALPYSVEEIYGIRTSGRYGTLKQSYHEFYRIYGTDTYEDKVSPEIIITEDSNSGYQFFEHVCIENGLKCESMNGKSNVFHYLNKHKGEKILVIADGAAFGSEIDRVLQVIHGRKNVALYLPESFEWMIMDADILKNNTVRSILSNPSEYVESKLYFSWERFFTAILIEQTKDTYLAYAKRKLNPAYLSGAIKESILRKMNIIDLNKKDE” it is “not soluble”.
As for “MALFFRTRDRPLRPGDPYPLGSNWIEDDDGVNFSLFSENAEKVELLLYSLTNQKYPKEIIEVKNKTGDIWHVFVPGLRPGQLYAYRVYGPYKPELGLRFNPNKVLIDPYAKAINGSVIWNDAVFGYKIGDQNQDLTYDERDSGEYVPKSVVINPYFEWDDEDFIKGKKVPLKDTVIYEVHVKGFTKLRLDLPENIRGTYEGLASEQMISYLKDLGITTVELMPVFHFIDQRFLTDKGLTNYWGYDPINFFSPECRYSSTGCLGGQVLSFKKMVNELHNAGIEVIIDVVYNHTAEGNHLGPTLSFRGIDNTAYYMLQPDNKRYYLDFTGTGNTLNLSHPRVIQMVLDSLRYWVTEMHVDGFRFDLAAALARELYSVNMLNTFFIALQQDPILSQVKLIAEPWDVGQGGYQVGNFPYQWAEWNGKYRDSIRRFWRGEALPYSEIANRLLGSPDIYLGNNKTPFASINYVTSHDGFTLEDLVSYNQKHNEANGFNNQDGMNENYSWNCGAEGPTNDQNVVICREKQKRNFMITLLVSQGTPMILGGDELSRTQRGNNNAFCQDNEITWFDWNLDERKSKFLEFVKKMIQFYRAHPAFRRERYFQGKKLFGMPLKDVTFYTLEGREVDEKTWSSPTQLVIFVLEGSVMDEINMYGERIADDSFLIILNANPNNVKVKFPKGKWELVISSYLREIKPEERIIEGEKELEIEGRTALVYRRIEL”, the “soluble on expression in E. coli” value is given as “soluble”.
Consider “AQSSTDVIDQLFTALSGWFHGSEEKLGEFRGCFFINTSAEFSDDSGEIATYCRHHKQQVRELIQRYLKSDNTSLLDAICIMKEGAITTAYMTKEYDDVTKKCVEILHKL”, for which the “soluble on expression in E. coli” value is “not soluble”.
On to “MAHHHHHHMTPTSAITTSAPATATTAEQTPLPPEQTSMFDAPGTPTPAVSAASARATGAQDSSTLMEGAKTETTKQNLAMKGLDRWMKMQLPADWMECIRQNLQLDKHGQPMHAVTEMKDAIPLLITPLTGDVKFFPYFVCSMDVAVRYHYVIQNERDPDTTAVIDDLQRRFGNSGRLLVVRNRYNRGYSGSMNQAFEWALKERTAEEVPWVFACGVDAIFEPGLLAKMIEVVQQNTRGDAAMLAALRAEVELEERLVREGNYSYYERWAPRGRPLKVLRSGYPGVPLNVRTAPLLPDRIRYTVADENRESGIVRPAELRTRFFGNYVATVTPVPDALGTIAVTRLALSAVGYFDENYFPAYMDDIDLRWRHFAYGFGALHGERNGPVTRWHHYNAANLRGSPFVDPDLEKYGTEDNYSRRAFLSYIRRSKGIYDKLKYGPRDMDGVWRQAAQKAEFKYSSFNVSHYPADTWVLDEDARGCMFHHTYNYKTQNWSRPSDCSYNPRTLEESGILGVDQLASYRSMLAEKAFAYQ”, for which the “soluble on expression in E. coli” value is “not soluble”.
Consider “AIAGNTTSERVSGERHGAKAARAEGGGHGPGKEHKIMVGSTDDPSVFSLPDSKLPGDKEFVPWQQDLDDSVKPAQQARPTVIRWSEGGKEVFISGSFNNWSTKIPLIKSHNDFVAILDLPEGEHQYKFFVDGQWVHDPSEPVVTSQLGTINNLIHVKKSDFEVFDALKLDSMESSETSCRDLSSSPPGPYGQEMYVFRSEERFKSPPILPPHLLQVILNKDTNISCDPALLPEPNHVMLNHLYALSIKDSVMVLSATHRYKKKYVTTLLYKPI”, for which the “soluble on expression in E. coli” value is reported as “soluble”.
For “MAHHHHHHMNYNNNSFIPPTHVVKNIYTSAKTKFFLIKSSSDKNIAISLNYNIWATTPKNEYKFVSAFMEHDYVILVFSVNGSSKFCGYAIMQSKPGESKNNNVYFYYDNKVFRGKNFDIQWIRVVDVPFQEVAHLKNSLNEYKPIKVGRDGQEIEQMAGIQLCEAFESNFIKINNNITDTNTKPNIPPMYNMNTNNYVDSPNMNENIDMIKLYPYNNNFNINYNNFRNLYEESQYNLFNFYNPALHIFPIDLTNMNYDEYIYLYEKSQLVWQQKMLQMKANMNCIKQ”, the “soluble on expression in E. coli” value is “not soluble”.
Take “MAKNIQAIRGMNDYLPGETAIWQRIEGTLKNVLGSYGYSEIRLPIVEQTPLFKRAIGEVTDVVEKEMYTFEDRNGDSLTLRPEGTAGCVRAGIEHGLLYNQEQRLWYIGPMFRHERPQKGRYRQFHQLGCEVFGLQGPDIDAELIMLTARWWRALGISEHVTLELNSIGSLEARANYRDALVAFLEQHKEKLDEDCKRRMYTNPLRVLDSKNPEVQALLNDAPALGDYLDEESREHFAGLCKLLESAGIAYTVNQRLVRGLDYYNRTVFEWVTNSLGSQGTVCAGGRYDGLVEQLGGRATPAVGFAMGLERLVLLVQAVNPEFKADPVVDIYLVASGADTQSAAMALAERLRDELPGVKLMTNHGGGNFKKQFARADKWGARVAVVLGESEVANGTAVVKDLRSGEQTAVAQDSVAAHLRTLLG”: the “soluble on expression in E. coli” value is “soluble”.
With “MGSDKIHHHHHHMILNSRTIDDAKFFDKPILLFFTDENCKDCDTIYSKLQDSTIFSKYIGKKVNALEYIHYTIRLTRGMIPTITILSPTLDLLAVIESKDLKFIENKLRELLDEYKRRIVKGIKLEGYTPDPIEPTPSIIYETINKVIGGYEADTRMIEVYLTYTNVYKEYLKAKDKIKCSDDVARYLLEGKGEIKIDEKSSANVSMLVNYGVTSVQKLLDFIDINSGEVYRSKKKETKGILLDEALAGNALVSEYERTINEEYLSLAIKVADYIKNNLQHERGFRDIKEIDNITKVPYLEPISNSEASIFFSRLWNITGDETYKNLALKGLGSALGGALNNPKVIARAAIAYLKLFDSIKANRYLNIIDARITVVKNNGCNDSMLYYSGQCYSKIDEIQPTAF”, the “soluble on expression in E. coli” value is recorded as “not soluble”.
With “MSLQAKIKNKRVLVKFSGEALAGDNQFGIDIHVLDHIAKEIKSLVENDIEVGIVIGGGNIIRGVSAAQGGIIRRTSGDYMGMLATVINAVAMQEALEHIGLDTRVQSAIEIKEICESYIYRKAIRHLEKGRVVIFGAGTGNPFFTTDTAATLRAIEIGSDLIIKATKVDGIYDKDPNKFKDAKKLDTLSYNDALIGDIEVMDDTAISLAKDNKLPIVVCNMFKKGNLLQVIKHQQGVFSMVKEGHHHHHH”, the “soluble on expression in E. coli” value is on record as “soluble”.
